Nine sequences from the DeepSol protein solubility set can be followed below.

A short description of this data set: soluble on expression in E. coli; label from the status in PepcDB or PDB records.
“MMQALTYYRDLAANTMPGSNDIMEVKDAFMNGTAPMAIYSTYILPAVIKEGDPKNVGFVVPTEKNSAVYGMLTSLTITAGQKTEETEAAEKFVTFMEQADNIADWVMMSPGAALPVNKAVVTTSTWKDNDVIKALGELPNQLIGELPNIQVFGAVGDKKFTRMGDVTGSGVVSSMVHNVTVGKADLPGTLQTSQKKLDELIEQH”: the “soluble on expression in E. coli” value is given as “not soluble”.

In the case of “MSLVKIVDVAKAANVSPAVVSRILSNDSKLVVREETRARVQQAIEALGYTPNLQARGLRLSRSNTLAMIVPELNSPVFPVIIQGAQRAAWERGYSLLVGGMGGEEEDPKVAGRLLRSNRIDGLLVTTGRHEAQMLQELATLNAPFVLVNRYLDDQHPYVELDERGAAAAITRHFIELGHRRIAFLGGLQRRVGERRVAGYADALAEAGLPWVPQLVVDAGYYKPGGEDGLRQLLALDEPPTAVVATNEIVAAGAMAAAHRQGVRIPRDLSIASFSDGIVAELLSPALTAVRFPLERMGYLATAMLVDIVEGRGAPQAGLCLPHESVVVRDSTARPPGRKARAATREGHHHHHH”, the “soluble on expression in E. coli” value is “not soluble”.

On to “MSSGDQNRGGVADKALQLVLEMKRNPDVLPPYNTELVRQCYQKIDELFQKNAAVVEKIRAGLPHDSTLLQPRLAAMCHIRRCMMAYVNERKNRIRSFRWKYGGALPASVRNALCDAEIQFFNEYSSTLARFQSNLGEGGVNLLLHSAPPKSLFVQVRALEDYGEFETSDGTQVQLSKDSLHSLPRQDCEMLIRQGVLELVH”, for which the “soluble on expression in E. coli” value is “not soluble”.

For the sequence “MLWMVIGMWDTSKDYRLMVAVKAVDLFRRTLESGGFRGQWKKKPALQAAGEIERILQGLTYCYMEPEDLASSPEVMEIKGKVEEIVEALGGEDWSRRFLEEAPREEREKVEENIARVRFFLNTLGNLDRRLMLGKISDPVIGVDIITGEVMSVGNHPVADKLHVCNVNAGGRSIKVVTNDLDVRENDHVAVALLPPQNFMGVTSEGMFLGVEGVLRDVDGEPGEMPRGIPLEALNETRNLVEEFLKS”, the “soluble on expression in E. coli” value was “soluble”.

As to “MSLVEMKFLTDRMLGRLTRWLRISGYDTVSVSELEFDEEEDEFMLRNLRDRILLTKDRELYRKSVKEGRKAILIRSDSLEGQMRELMERGVKFQIVMDRCSLCNTPLRKPSREEAMEVIEREKLSEDMLEFELWYCEKCRKLYWMGGHWKNMTRFLRKFESEGHHHHHH”, the “soluble on expression in E. coli” value is recorded as “soluble”. Under “MWGETFDDFENDEGEMAMAKQNLIAEPARADFTFAKLPLGIQPVDFMKTHFAETAGKSMQFRKGTTTLAFVYEPATPADKGGIIVAVDSRASSGEYISSKSVMKILDIGDRMVATMAGGAADCQFWTRIVAKYCTLYELREKTSITVSAASKYFANTLYGYRGQGLSVGSMVAGYDKKGPQIFKVDSEGDRCQLKVCSVGSGSLNAYGILDNHYKPKMTDDEARKLGLRAIMHATYRDSGSGGVCNLCHITPTEKIRLPPMDVSKLWYEFADELGRDITYNPVE” stands “soluble”; under “MKKLFALLFISMISGMIMAQIPEVSGTIVFKKDGQPVVGALVSVLGTDISTITDVDGRFTLKEIPEKAQRIRVKYIGMQPKDVKIRPIMNVTLDLEKKLAFFIQAGVGVSGYNLENNNEDIYGGNNHLYIQGGVGLNYNFSTYFSLQPSVNVVAKGCKNMGRRGSDGQGEITVDPVYLEIPVLIAARFIISDFGRLIFNAGPYAAIGIAGKGKYTDEWEGTSMKFDLFSGDEAVLKRFDAGVQAGFAYEIKHIGFSYTFGYGLLKPFKEWNKEWGATPHNISHNFGLKYIF”, “not soluble”; under “MSTQVQDRIHDRRELTAVLLRALEQRHEVLDAIVDSEDHAEALTTVAGLLDTSEAYAEAVLNLTFRRLTKVERLRIQTELKDLDATLEWTSTDRPASTGRNFRLRPFTDTEEDAELFRRRCGEQVDDAGAQWSEDRVEKERTEGLSRVDDESAAWFVCEDTAENTAVGMVFGELSGREVDVAIWIAPDARKKGYGTAAVKHSRQELAAEFPGTVLVVR”, “not soluble”. Under “MNYQNDDLRIKEIKELLPPVALLEKFPATENAANTVAHARKAIHKILKGNDDRLLVVIGPCSIHDPVAAKEYATRLLALREELKDELEIVMRVYFEKPRTTVGWKGLINDPHMDNSFQINDGLRIARKLLLDINDSGLPAAGEFLDMITPQYLADLMSWGAIGARTTESQVHRELASGLSCPVGFKNGTDGTIKVAIDAINAAGAPHCFLSVTKWGHSAIVNTSGNGDCHIILRGGKEPNYSAKHVAEVKEGLNKAGLPAQVMIDFSHANSSKQFKKQMDVCADVCQQIAGGEKAIIGVMVESHLVEGNQSLESGEPLAYGKSITDACIGWEDTDALLRQLANAVKARRG” stands “soluble”.
